From the supplement of paper PMC10567573

B1: RBBP5 (parent)
chain: TGTSNTTAIKSIEFARKGSCFLIN

Variants of: B1
Assay: protein stability index of a GFP-peptide fusion (GPS, HEK-293T) (PSI 1-6); higher = more stable
Conditions: c terminus: a fixed tail appended
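Note: lentivirally expressed fusions sorted by FACS into six bins by GFP to DsRed ratio, PSI derived from sequencing read proportions per bin multiplied by bin number.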

Point of comparison: TGTSNTHAIKSIEFARKGSCFLIN [T7H], protein stability index 1.97. Against it:
- TGTVNTTAIKSIEFARKGSCFLIN [S4V] — higher, 2.09
- TGTSNTTAIKSIEAARKGSCFLIN [F14A] — higher, 3.06
- TGTSNTTAIKSIIFARKGSCFLIN [E13I] — higher, 2.89
- TGTSNTTAIKSIEFARKGSCFIIN [L22I] — higher, 2.55
- TGHSNTTAIKSIEFARKGSCFLIN [T3H] — higher, 2.52
- TDTSNTTAIKSIEFARKGSCFLIN [G2D] — higher, 2.62
- TGTSNTTAIKMIEFARKGSCFLIN [S11M] — higher, 2.09
- TGTSNTTAIKSICFARKGSCFLIN [E13C] — the same, 1.97
- TITSNTTAIKSIEFARKGSCFLIN [G2I] — lower, 1.89
- TGTSNTTAIKSIEFARKGSCKLIN [F21K] — higher, 3.48
- TGTSNTTAIKDIEFARKGSCFLIN [S11D] — higher, 2.6
- TGTSNTTAIKQIEFARKGSCFLIN [S11Q] — higher, 2.74
- TGTSNTTAIKSIEFARKGRCFLIN [S19R] — higher, 2.24
- TGTSNTTAIKSIMFARKGSCFLIN [E13M] — higher, 2.15
- TGTSNTTAIPSIEFARKGSCFLIN [K10P] — higher, 2.38
- NGTSNTTAIKSIEFARKGSCFLIN [T1N] — higher, 2.3
- TGTSNTTAIKSIEFARKGSCFLAN [I23A] — higher, 2.67
- TGTSNTTADKSIEFARKGSCFLIN [I9D] — higher, 2.86
- TGTSNPTAIKSIEFARKGSCFLIN [T6P] — higher, 2.29
- TGTSNTTAIKSIEFARKGSDFLIN [C20D] — higher, 2.6
- TGTSNTTAIKSIEFARKGSCVLIN [F21V] — higher, 2.75
- TGTSNTTAIKSIEFARKGSCFLYN [I23Y] — higher, 2.58
- TGTSNTTAIKSIEFARKGSCFGIN [L22G] — higher, 3.03
- TGTSNTTAIISIEFARKGSCFLIN [K10I] — higher, 2.15
- TGTGNTTAIKSIEFARKGSCFLIN [S4G] — higher, 2.17
- TGTSNTTAIKSIEFARKGTCFLIN [S19T] — lower, 1.79
- TGTSNTTAIKSISFARKGSCFLIN [E13S] — higher, 2.38
- TGTSNTTAIKSIEFARKGSCMLIN [F21M] — higher, 3.52
- TGTSNTTAIKSIEFARKGSCFLDN [I23D] — higher, 3.02
- TGTSNTTAYKSIEFARKGSCFLIN [I9Y] — lower, 1.88
- TGTSNTTAIKSIEFARKGSCFLQN [I23Q] — higher, 3.31
- TGTSNTTALKSIEFARKGSCFLIN [I9L] — higher, 2.03
- TGTSNTTAIKSIEFDRKGSCFLIN [A15D] — higher, 2.9
- TGTSITTAIKSIEFARKGSCFLIN [N5I] — lower, 1.95
- TGTSNTTSIKSIEFARKGSCFLIN [A8S] — higher, 2.01
- TGTSNTTAIKSIEFARKGSCFEIN [L22E] — higher, 3.31
- TGTSNTIAIKSIEFARKGSCFLIN [T7I] — higher, 2.23
- TPTSNTTAIKSIEFARKGSCFLIN [G2P] — higher, 2.63
- TGTSNTTAIKSIEFARKGSAFLIN [C20A] — higher, 2.6
- TGTSQTTAIKSIEFARKGSCFLIN [N5Q] — higher, 2.58
- TGTSNTTAIKSIESARKGSCFLIN [F14S] — higher, 3.42
- TGTSNTKAIKSIEFARKGSCFLIN [T7K] — higher, 2.04
- TGTSNTTAIKSIEFARKGSCFLIM [N24M] — higher, 2.16
- TGTSNTTAIKSIEFMRKGSCFLIN [A15M] — lower, 1.94
- TGTRNTTAIKSIEFARKGSCFLIN [S4R] — lower, 1.91
- TGTSNTTAKKSIEFARKGSCFLIN [I9K] — higher, 2.47
- TGTSNTTIIKSIEFARKGSCFLIN [A8I] — lower, 1.74
- TGTSPTTAIKSIEFARKGSCFLIN [N5P] — higher, 2.08
- TGTSTTTAIKSIEFARKGSCFLIN [N5T] — higher, 2.09
- TGTSNTTAIKSIEFARKGSYFLIN [C20Y] — higher, 2.12
- TGTSNTTHIKSIEFARKGSCFLIN [A8H] — lower, 1.85
- TGTSNTTAMKSIEFARKGSCFLIN [I9M] — higher, 2.67
- TGTSNTTAFKSIEFARKGSCFLIN [I9F] — higher, 1.98
- TGESNTTAIKSIEFARKGSCFLIN [T3E] — higher, 2.55
- TGTSNTTAIKSIEFARKGSCFKIN [L22K] — higher, 3.21
- TGTSNTTAIKSIEFARKGSEFLIN [C20E] — higher, 2.98
- TGTINTTAIKSIEFARKGSCFLIN [S4I] — higher, 2.52
- TGTSNTTACKSIEFARKGSCFLIN [I9C] — higher, 2.28
- TGTSNTTAIRSIEFARKGSCFLIN [K10R] — higher, 2.29
- TGTSNTTAIKSIEGARKGSCFLIN [F14G] — higher, 2.76
- TGTSNTTAIKSIEFARKGDCFLIN [S19D] — higher, 3.72
- QGTSNTTAIKSIEFARKGSCFLIN [T1Q] — higher, 2.79
- TGTSNTTAIKSIEFARKGHCFLIN [S19H] — higher, 2.04
- TGTSNTTAIKSIEFARKGSCSLIN [F21S] — higher, 3.09
- TGTSNTTAIKSIEFARKGSCDLIN [F21D] — higher, 3.83
- TGTSNTTAIKSIEFARKGSCFLIC [N24C] — higher, 2.38
- TGTSNTTQIKSIEFARKGSCFLIN [A8Q] — higher, 2.21
- TGTSNTTAIKSIEFFRKGSCFLIN [A15F] — higher, 2.52
- TGTSNTTAIYSIEFARKGSCFLIN [K10Y] — higher, 3.11
- TGTKNTTAIKSIEFARKGSCFLIN [S4K] — higher, 2.67
- TGTSNTTAIVSIEFARKGSCFLIN [K10V] — lower, 1.93
- TGTSNTTAIKSIEFARKGSCFLCN [I23C] — higher, 2.36
- TGTSNTTAIKSIEWARKGSCFLIN [F14W] — higher, 2.07
- TGTSNTTAIKLIEFARKGSCFLIN [S11L] — higher, 2.5
- TGTSNTTAIKSIEFARKGSVFLIN [C20V] — higher, 2.09
- TGTSNTTAIKSIEFARKGSCFLIT [N24T] — lower, 1.76
- TGTSNTTAINSIEFARKGSCFLIN [K10N] — lower, 1.86
- TGTSMTTAIKSIEFARKGSCFLIN [N5M] — lower, 1.66
- TGTSNTTAIKSIEFARKGVCFLIN [S19V] — higher, 2.25
- TATSNTTAIKSIEFARKGSCFLIN [G2A] — higher, 2.02
- TGTSNTTAIKSIEYARKGSCFLIN [F14Y] — higher, 2.38
- TGTSNTTAIKSIEEARKGSCFLIN [F14E] — higher, 3.84
- TGTCNTTAIKSIEFARKGSCFLIN [S4C] — higher, 2.2
- TGTSNTTAIKSIEFARKGSTFLIN [C20T] — higher, 2.56
- TGTSNTTAIKSIEFARKGSCGLIN [F21G] — higher, 3.35
- TGTSNTTAIKSIEFPRKGSCFLIN [A15P] — higher, 2.46
- TGTSNTTAIKSIEQARKGSCFLIN [F14Q] — higher, 3.12
- TGTSNTTAIKSEEFARKGSCFLIN [I12E] — higher, 3.5
- TGTSNTTAIKSVEFARKGSCFLIN [I12V] — higher, 2.6
- TGTSNTTAIKSIEFARKGSCFHIN [L22H] — higher, 2.52
- TGKSNTTAIKSIEFARKGSCFLIN [T3K] — higher, 2.9
- TGTSNTTAIKSIEFKRKGSCFLIN [A15K] — higher, 2.42
- TGTSNTTAIQSIEFARKGSCFLIN [K10Q] — higher, 2.82
